Data from patent publication US20150291675A1 (published 2015).
Substitutions are numbered along the chain they refer to.

T1: synthetic non-modified human Hepcidin-25 (human, not fully specified)
T1 construct: also called hHepcidin-25; non-biotinylated human Hepcidin-25
T1 peptide: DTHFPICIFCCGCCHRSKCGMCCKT

T2: C-terminal biotinylated human Hepcidin-25 (human, not fully specified; biotinylated via a Lysine residue coupled to the C-terminus via a Mini-PEG linker)
T2 construct: Captured on plates via Neutravidin in the ELISAs; also called C-terminal biotinylated hHepcidin; C-terminal biotinylated hepcidin (Bachem AG)
T2 peptide: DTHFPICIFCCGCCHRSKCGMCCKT

B1: lipocalin mutein of SEQ ID NO: 1 (designed binder)
chain: QDSTSDLIPAPPLSKVPLQQNFQDNQFHGKWYVVGLAGNEVLREDKDPMKMWATIYELEEDKSYNVTIVMFLAKKCEYLFQTFVPGSQPGEFTLGDIKSSPGRTSGLVRVVSTNYNQHAMVFFKTVWQNREVFWITLYGRTKELTSELKENFIRFSKSLGLPENHIVFPVPIDQCIDG
notes: also called hNGAL mutein; Lcn2 mutein; not shown: C-terminal Strep-tag II encoded by phNGAL98
B2: lipocalin mutein of SEQ ID NO: 9 (designed binder)
chain: B1 chain with E59K, F71S, T125V, E147G
notes: Purified with C-terminal Strep-tag II; also called hNGAL mutein; Lcn2 mutein; not shown: C-terminal Strep-tag II encoded by phNGAL98
B3: lipocalin mutein of SEQ ID NO: 11 (designed binder)
chain: B1 chain with V41I, E59K, T125V, E147G
notes: as for B2
B4: lipocalin mutein of SEQ ID NO: 8 (designed binder)
chain: B1 chain with E59K, F71P, K74E, D96G, S100G, T125V, I135V
notes: as for B2
B5: lipocalin mutein of SEQ ID NO: 12 (designed binder)
chain: B1 chain with E59K, K74E, K75E, T125V, E150K
notes: as for B2
B6: lipocalin mutein of SEQ ID NO: 5 (designed binder)
chain: QDSTSDLIPAPPLSKVPLQQNFQDNQFHGKWYVVGAAGNSLLREDKDPMKMWATIYELKEDKSYNVTRVNFGGKKCSYLIETFVPGSQPGEFTLGSIKSRPGATSVLVRVVSTNYNQHAMVFFKLVTQNREVFWITLYGRTKELTSELKENFIRFSKSLGLPENHIVFPVPIDQCIDG
notes: as for B2
B7: lipocalin mutein of SEQ ID NO: 2 (designed binder)
chain: QDSTSDLIPAPPLSKVPLQQNFQDNQFHGKWYVVGTAGNSILREDKDPQKMWATIYELKEDKSYNVTRVFFEGKKCRYVIETFVPGSQPGEFTLGKIKSAPGGTSILVRVVSTNYNQHAMVFFKVVWQNRELFWITLYGRTKELTSELKENFIRFSKSLGLPENHIVFPVPIDQCIDG
notes: as for B2
B8: lipocalin mutein of SEQ ID NO: 7 (designed binder)
chain: QDSTSDLIPAPPLSKVPLQQNFQDNQFHGKWYVVGLAGNRVLREDKDPQKMFATIYELKEDKSYNVTGVDFRTKKCLYSIGTFVPGSQPGEFTLGVIKSQPGWTSYLVRVVSTNYNQHAMVFFKTVWQNREVFWITLYGRTKELTSELKENFIRFSKSLGLPENHIVFPVPIDQCIDG
notes: as for B2
B9: lipocalin mutein of SEQ ID NO: 3 (designed binder)
chain: QDSTSDLIPAPPLSKVPLQQNFQDNQFHGKWYVVGVAGNGLLREDKDPLKMHATIYELKEDKSYNVTRVLFVRKKCRYYISTFVPGSQPGEFTLGRIKSEPGRTSFLVRVVSTNYNQHAMVFFKMVWQNREVFWITLYGRTKELTSELKENFIRFSKSLGLPENHIVFPVPIDQCIDG
notes: as for B2
B10: lipocalin mutein of SEQ ID NO: 10 (designed binder)
chain: QDSTSDLIPAPPLSKVPLQQNFQDNQFHGKWYVVGLAGNEILREDKDPMKMWATIYELKEDRSYNVTIVMFLAKKCEYLFQTFVPGSQPGEFTLGDIKSSPGRTSGLVRVVSTNYNQHAMVFFKVVWQNREVFWITLYGRTKELTPELKENFIRFSKSLGLPENHIVFPVPIDQCIDGF
notes: as for B2
B11: lipocalin mutein of SEQ ID NO: 4 (designed binder)
chain: QDSTSDLIPAPPLSKVPLQQNFQDNQFHGKWYVVGVAGNEMLREDKDPLKMLATIYELKEDKSYNVTRVMFEYKKCVYLIETFVPGSQPGEFTLGTIKSVPGLTSGLVRVVSTNYNQHAMVFFKRVWQNREVFWITLYGRTKELTSELKENFIRFSKSLGLPENHIVFPVPIDQCIDG
notes: as for B2
B12: lipocalin mutein of SEQ ID NO: 6 (designed binder)
chain: QDSTSDLIPAPPLSKVPLQQNFQDNQFHGKWYVVGLAGNEILREDKDPLKMWATIYELKEDKSYNVTRVQFGEKKCGYGIETFVPGSQPGEFTLGSIKSVPGGTSRLVRVVSTNYNQHAMVFFKFVWQNREVFWITLYGRTKELTSELKENFIRFSKSLGLPENHIVFPVPIDQCIDG
notes: as for B2

What was measured:
[1] = biological target: T1, synthetic non-modified human Hepcidin-25; test: SPR (Biacore T100), mutein amine-coupled to CM5 chip, hepcidin as analyte, 1:1 model
Description: Lipocalin muteins were immobilized to a CM5 sensor chip using standard amine chemistry. The surface of the chip was activated using EDC and NHS. Subsequently, 20 μg/mL lipocalin mutein solutions in 10 mM sodium acetate pH 4.5 (60 μg/mL in 10 mM sodium acetate pH 4.0 for peglyted lipocalin mutein) were applied at a flow rate of 5 μL/min until a surface density of 500-700 resonance units (RU) for non-modified lipocalin muteins and of approximately 1600 RU for pegylated lipocalin with the sequence of SEQ ID NO: 13 was achieved. Residual activated groups were saturated with ethanolamine. The reference channels were treated with EDC/NHS following ethanolamine (blank immobilization). All reagents and materials were purchased from GE Healthcare.
Serial dilutions of human and cynomolgus Hepcidin-25 in running buffer (HBS-EP+, GE Healthcare, BR-1006-68) were applied to the prepared surface. The following parameters were used for the binding assay, contact time 60 s, dissociation time 180-360 s, flow rate 30 μL/min. All measurements were performed on a Biacore T100 instrument (GE Healthcare) at 25° C.
Data were evaluated with Biacore T100 Evaluation software (V 2.0.1). Double referencing was used. The 1:1 Binding model (Langmuir) was used to fit the raw data.

[2] = biological target: T2, C-terminal biotinylated human …; test: direct ELISA, hepcidin captured via Neutravidin
Description: A “direct” ELISA was performed to verify the binding affinity and specificity of the selected Lcn2 muteins. Therefore, a constant concentration of 1 μg/ml C-terminal biotinylated hepcidin (Bachem AG, CH) was captured on the surface of a polystyrol plate (Greiner, GE) via Neutravidin (Thermo Scientific, 5 μg/ml). Two step dilution series of purified Lcn2 muteins were incubated with the captured hepcidin […] at room temperature and detected either via the Strep-tag II using a rabbit anti-strep-tag II polyconal antibody (GenScript, USA) or by using a scaffold-specific polyclonal rabbit antibody. In both cases an anti rabbit IgG-HRP conjugate (Abcam, UK) was employed as secondary detection antibody.

[3] = biological target: T2, C-terminal biotinylated human …; test: HT-screening ELISA, reverse ELISA and competition ELISA; T7- and Strep-tagged clone in crude lysate
Description: Lipocalin muteins were selected in a HT-screening ELISA. Therein, NGAL variants equipped with a T7 detection tag (Novagen) as well as a Strep-tag II affinity tag (IBA) were soluble expressed in a 96 well microtiter plate using the E. coli strain TG1/F with phNGAL 101. This vector corresponds to phNGAL 98 (SEQ ID NO: 31) with an N-terminal T7 tag consisting of 11 amino acids ([…]) (SEQ ID NO: 34, see also FIG. 4B). Lipocalin mutein expression was induced overnight at 22° C. at 700 rpm with anhydrotetracycline (0.2 μg/ml) at an OD₅₅₀ of 0.6. […] To minimize non-specific binding in the subsequent ELISA screen, the crude cell lysates were supplemented with 2% w/v BSA and 0.1% v/v Tween 20 and tested in ELISA for binding to human Hepcidin-25. Therefore, soluble C-terminal biotinylated human Hepcidin-25 was immobilized on wells of black Fluotrac 600 ELISA plates (Greiner; 384 well) with 1 μg/ml via capturing by Neutravidin (5 μg/ml, Thermo Scientific). Neutravidin, Streptavidin, 5 μg/ml each, and 3% milk were used as negative control. Plates were blocked with PBST/0.1 containing 2% w/v BSA, and subsequently incubated with the bacterial cell extract for 1 h at room temperature plates were washed five times and bound Lipocalin muteins were detected via an anti-T7 monoclonal antibody-HRP conjugate (Novagen), diluted 1:10.000 in PBST/O 1. Therefore, QuantaBlu™ (Pierce; 1:2 diluted in PBS/T 0.1%) was used as fluorogenic HRP substrate. After 45 min of signal development at room temperature fluorescence was excited at a wavelength of 320 nm (±12.5 nm) and measured at 430 nm (±17.5 nm) in a GENiosPlus plate reader (Tecan).
In a reverse ELISA approach soluble expressed muteins from the crude cell lysate were captured in ELISA plates via their T7-tag following incubation with varying amounts of C-terminal biotinylated hHepcidin to reach target-limiting conditions in order to differentiate the muteins by their affinity. Binding of the target was detected via Extravidin-HRP conjugate (Sigma). One could compete for mutein binding by the addition of 100 nM non-biotinylated human Hepcidin-25 indicating, that the muteins bind the non-modified hHepcidin-25 as well.

Row | Binder | binding result [1] | binding result [2] | binding result [3]
1 | B1 | binds | binds | 
2 | B2 |  |  | binds
3 | B3 |  |  | binds
4 | B4 | binds |  | binds
5 | B5 |  |  | binds
6 | B6 |  | binds | 
7 | B7 |  | binds | 
8 | B8 |  | binds | 
9 | B9 |  | binds | 
10 | B10 |  |  | binds
11 | B11 |  | binds | 
12 | B12 |  | binds | 
